Target: MED14-containing head+middle (H+M+14) complex (human) (UniProt O60244)
Assay: co-IP

Substance: RNA polymerase II (from UniProt P24928;P61218) (complex)
- percent of input bound: < 75 % of input

From publication PMC4259101
